The values that follow come from US20030143644A1.

Assay [1] addresses cytoskeleton. The assay can be described thus: cell-based or functional assay.
The target in assay [2] is cytoskeleton. The assay can be described thus: immunoblot densitometry of the pellet after anti-αβTCR plus GAM ligation, thymocytes.
Assay [3] concerns the target cytoskeleton. The assay can be described thus: immunoblot densitometry of the detergent insoluble pellet, TCR ligated against non-ligated. Background: A western blot detects proteins with antibodies after separation by electrophoresis.
Assay [4] has as its target cytoskeleton. In words: immunoblot densitometry of the detergent insoluble pellet, resting cells.
Assay [5] deals with cytoskeleton. In words: immunoblot densitometry of the pellet after anti-αβTCR plus GAM ligation, lymph node T cells.

TCR-ζ, sequence (P24161 22-164 limits assumed): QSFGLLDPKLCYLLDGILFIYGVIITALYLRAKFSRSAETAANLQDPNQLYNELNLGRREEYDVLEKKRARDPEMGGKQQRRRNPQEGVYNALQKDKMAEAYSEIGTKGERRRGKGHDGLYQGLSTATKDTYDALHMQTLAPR

Consider “CD8/ζD67-126 (from UniProt P01731 28-217; P24161 52-164) (receptor)”, for which the IL-2 production (fold less IL-2 than wild-type CD8/ζ) in assay [1] was determined as 40.
In turn, “CD8/ζY153E (from UniProt P01731 28-217; P24161 52-164) (receptor)” gave an IL-2 production (fold less IL-2 than wild-type CD8/ζ) in assay [1] of 100.
For “TCR-ζ (from UniProt P24161 22-164) (receptor)”, in assay [2], the percent of TCR-ζ in the detergent insoluble pellet (activated thymocytes) stood at 16%. In assay [3], the fold increase in the pellet against non-ligated samples (lymph node T cells) worked out at 6 fold and the fold increase in the pellet against non-ligated samples (thymocytes) worked out at 2 fold. The percent of TCR-ζ in the detergent insoluble pellet (resting thymocytes and lymph node T cells) in assay [4] was determined as 7%. Besides, the percent of TCR-ζ in the detergent insoluble pellet (activated lymph node T cells) in assay [5] came to 43%.
